Test results as given in doi:10.1101/2024.10.14.618187, “Molecular basis of interchain disulfide-bond formation in BMP-9 and BMP-10” (bioRxiv, 2024).

Columns and labels:
[1] = molecular target: BMP-9 monomer (cysteinylated BMP-9 growth factor) (human) (UniProt Q9UK05)
[2] = molecular target: BMP-9 dimer (disulfide-linked BMP-9 growth factor homodimer) (human) (UniProt Q9UK05)
[3] = molecular target: the molecule itself; experiment: crystal structure; BMP-10 Crystal Chimera; 25% 1,2-propanediol, 100 mM phosphate pH 6.2, 10% glycerol
BMP-10 monomer (human) = BMP-10 monomer (human) (UniProt O95393)
BMP-10 dimer (human) = BMP-10 dimer (human) (UniProt O95393)
[4] = molecular target: T1, Pro-(X)-BMP-10 R353K, O95393; experiment: SDS-PAGE densitometry after IMAC purification; details: chain shown with the change
T1 chain: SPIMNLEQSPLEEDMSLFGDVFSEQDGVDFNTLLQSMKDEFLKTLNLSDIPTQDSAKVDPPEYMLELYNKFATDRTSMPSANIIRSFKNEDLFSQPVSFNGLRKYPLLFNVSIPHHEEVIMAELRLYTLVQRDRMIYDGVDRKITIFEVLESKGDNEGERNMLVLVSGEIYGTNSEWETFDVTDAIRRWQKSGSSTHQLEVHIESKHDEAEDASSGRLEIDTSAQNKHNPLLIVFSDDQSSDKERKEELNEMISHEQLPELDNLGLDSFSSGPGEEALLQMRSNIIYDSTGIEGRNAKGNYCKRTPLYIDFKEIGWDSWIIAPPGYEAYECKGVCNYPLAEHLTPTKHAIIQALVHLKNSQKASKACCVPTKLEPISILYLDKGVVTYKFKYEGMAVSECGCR

BMP-9 monomer (cysteinylated BMP-9 growth factor) (from UniProt Q9UK05 320-429) (ligand)
EC50 of pSMAD1/5/9 (western blot) in serum-starved HUVECs, 45 minutes, monomers 0.01–54 ng/mL [1]: 124 pM

BMP-9 dimer (disulfide-linked BMP-9 growth factor homodimer) (from UniProt Q9UK05 320-429) (ligand)
EC50 of pSMAD1/5/9 (western blot) in serum-starved HUVECs, 45 minutes, dimers 0.001–1.62 ng/mL [2]: 3.3 pM

B1: BMP-10 Crystal Chimera (growth factor from Pro9-(X)-BMP-10 Crystal Chimera) (ligand, human)
chain: DDGNYCKRTPLYIDFKEIGWDSWIIAPPGYEAYECRGVCFFPLAEHLTPTKHAIIQTLVHLKNSQKASKACCVPTKLEPISILYLDKGVVTLKYKYEGMAVSECGCR
notes: human proBMP10 residues 320-424 with five residues replaced by BMP-9 crystal contacts; numbers count on the precursor; Expressed behind the BMP-9 prodomain (proBMP9 residues 23-315); also called chimeric BMP-10; source: expi293 (suspension HEK293), expressed as Pro9-(X)-BMP-10 Crystal Chimera; purified
binding result [3]: binds

B2: BMP-10 monomer (ligand)
chain: NAKGNYCKRTPLYIDFKEIGWDSWIIAPPGYEAYECRGVCNYPLAEHLTPTKHAIIQALVHLKNSQKASKACCVPTKLEPISILYLDKGVVTYKFKYEGMAVSECGCR
modifications: cysteinylated (+119 Da); the paper takes the site to be the interchain cysteine
EC50 of pSMAD1/5/9 (western blot) in serum-starved HUVECs, 45 minutes, monomers 0.01–54 ng/mL (BMP-10 monomer (human)): 164 pM

B3: BMP-10 dimer (ligand)
chain: NAKGNYCKRTPLYIDFKEIGWDSWIIAPPGYEAYECRGVCNYPLAEHLTPTKHAIIQALVHLKNSQKASKACCVPTKLEPISILYLDKGVVTYKFKYEGMAVSECGCR
modifications: interchain disulfide
EC50 of pSMAD1/5/9 (western blot) in serum-starved HUVECs, 45 minutes, dimers 0.001–1.62 ng/mL (BMP-10 dimer (human)): 5.9 pM

B4: Pro-(X)-BMP-10, O95393 R353K (protein)
chain: SPIMNLEQSPLEEDMSLFGDVFSEQDGVDFNTLLQSMKDEFLKTLNLSDIPTQDSAKVDPPEYMLELYNKFATDRTSMPSANIIRSFKNEDLFSQPVSFNGLRKYPLLFNVSIPHHEEVIMAELRLYTLVQRDRMIYDGVDRKITIFEVLESKGDNEGERNMLVLVSGEIYGTNSEWETFDVTDAIRRWQKSGSSTHQLEVHIESKHDEAEDASSGRLEIDTSAQNKHNPLLIVFSDDQSSDKERKEELNEMISHEQLPELDNLGLDSFSSGPGEEALLQMRSNIIYDSTGIEGRNAKGNYCKRTPLYIDFKEIGWDSWIIAPPGYEAYECKGVCNYPLAEHLTPTKHAIIQALVHLKNSQKASKACCVPTKLEPISILYLDKGVVTYKFKYEGMAVSECGCR
other: dimer over monomer ratio [4]: 0.9
